Measured values: the supplement of paper PMC10724198
± gives the standard deviation of the averaged measurements.

What follows are sequences tested on Saccharomyces cerevisiae (assay: protein stability index of tFT-peptide fusion (C-terminal peptide) (PSI (0-1 scale)); higher = more stable (slower turnover)). Conditions: genetic background: wild type; temperature: 30 C.
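Note: PSI is a weighted mean of sequencing reads over stability bins, variants kept only with over 10 reads, mCherry proximal and sfGFP distal, peptide attached via GGGS linker.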

Sequence	protein stability index
LLRVTVCELAYK	0.55 ± 0.018
LIKSEECKNTDI	0.704 ± 0.033
SSSLHPRPSPPL	0.692 ± 0.043
WSPPRAAPRPHP	0.642 ± 0.045
KARLRQRKSTSK	0.728 ± 0.0084
TLPPPRPSPSSP	0.689 ± 0.035
QKEKKKTVKTKI	0.723 ± 0.09
GGCVTRYSSQRA	0.656 ± 0.041
GDGSNVSLFILF	0.784 ± 0.13
FILWSLIMGPYA	0.522 ± 0.019
SPLNLRIPGAPT	0.675 ± 0.034
ASPRLPSPLSLT	0.718 ± 0.12
IYCGDRGITGGV	0.683 ± 0.019
PYQQVAESETKK	0.717 ± 0.089
FPPPPPVPPPLS	0.723 ± 0.047
FCCGGEFAWCLG	0.695 ± 0.016
QFMLLRWGFAIR	0.544 ± 0.024
GWGGLFGCWVCG	0.656 ± 0.015
ISCTASRCRLTR	0.744 ± 0.025
PLTPVRCSICSV	0.64 ± 0.037
LAFFPPPLPPSS	0.698 ± 0.064
YSTFPPRIPRPP	0.524 ± 0.011
SKKHIKKKQKRK	0.687 ± 0.053
VTFTERIAIEWD	0.703 ± 0.054
DGSLTMTRTGFR	0.704 ± 0.021
YCGGRGGGWEIG	0.682 ± 0.027

Sequence	protein stability index
PLCFSLFFPFRP	0.657 ± 0.0099
CYFLAMPLYFPL	0.622 ± 0.014
GGGWSRGGSGAG	0.687 ± 0.011
ECVGSSKVYMLL	0.677 ± 0.092
VASKVNLPVWFW	0.702 ± 0.021
LFTFEADKCDLT	0.774 ± 0.092
SAVLLLNAGGLV	0.688 ± 0.0071
VPCCSAVDLLVS	0.5999 ± 0.0045
ANAPQAEHASVL	0.699 ± 0.021
GEVIAYGSAWGL	0.647 ± 0.014
VLPRVLADVRST	0.685 ± 0.03
GARGMGGLFFLG	0.728 ± 0.053
WGRCGAVGRGGA	0.693 ± 0.029
SRHLALPPPRSF	0.702 ± 0.045
QVVAAGRPWGVF	0.677 ± 0.011
RIQIKIKRTKNK	0.638 ± 0.11
GCLGDRVKSPIV	0.638 ± 0.068
HHRVLRCNNPFR	0.731 ± 0.12
TIRFWRSIFPHA	0.728 ± 0.051
CLAVPFSFRLVW	0.613 ± 0.041
SSSLPPPPHAFP	0.672 ± 0.036
DRKDGVSVSVGY	0.675 ± 0.05
PPRGAPWTRPPQ	0.691 ± 0.015
DPLSPLPPPPPP	0.635 ± 0.14
CVVYLDVRLPVT	0.58 ± 0.023
SGRDWYHSLGGA	0.742 ± 0.052

Sequence	protein stability index
CCSLIPRAPSGR	0.687 ± 0.051
ANKNNIQRTISL	0.756 ± 0.038
LTPSLPLPPSET	0.654 ± 0.047
YPRPLSLSFLSL	0.73 ± 0.048
ERYKKRGKTNKV	0.662 ± 0.0076
VPPPSPTLSPHP	0.656 ± 0.28
LPSPYPPPRPLP	0.711 ± 0.034
VANRFRSILVRR	0.599 ± 0.023
GRTAEKGHPPRG	0.7 ± 0.073
STSHSFGVLIAS	0.662 ± 0.0094
LKRKKKHQMKRR	0.699 ± 0.028
EIDAKNRDEETN	0.694 ± 0.019
SKRQKKENLKET	0.633 ± 0.044
GRKAEVRVLHFR	0.6447 ± 0.0055
SGVKKGRSEGKR	0.629 ± 0.051
SSPSPASSPPPP	0.677 ± 0.057
EGEEVNTGGEEA	0.642 ± 0.017
PAPPHPRIPSPT	0.669 ± 0.073
APPPAFLPPPPA	0.729 ± 0.048
LGRVLSFGHAFV	0.698 ± 0.021
KHKGRSKETHDV	0.616 ± 0.09
PVLANPQGHPPN	0.719 ± 0.027
ADRSVGSAACSP	0.72 ± 0.15
GGNDIIQNRKGK	0.674 ± 0.039
SIKDKFIVITLK	0.629 ± 0.11
RGRLRGPEPKMT	0.726 ± 0.078

Sequence	protein stability index
HHTDSLRPTAPH	0.73 ± 0.054
LWSICWNRVFPF	0.6973 ± 0.0017
IEATHKIDRCKD	0.676 ± 0.0086
PPQTHPLPCPSP	0.745 ± 0.018
KVDRDRTGIHWS	0.671 ± 0.061
YYSTPLARSRSP	0.831 ± 0.21
PHPPPPRPPPRS	0.642 ± 0.067
GNCGLLSLYTLF	0.503 ± 0.023
ERGGWGGGSEVG	0.684 ± 0.091
LGLSDPERLFVI	0.664 ± 0.025
SPSPQPLRRAHP	0.698 ± 0.043
AGGRSVCGSALP	0.661 ± 0.016
EPDQERKSIQGM	0.7 ± 0.013
FWGGGGGVGLAV	0.683 ± 0.063
FLFCLLGSFRSF	0.5829 ± 0.004
YWSRIFEAATIA	0.5436 ± 0.0024
RGPRWETVSSCM	0.682 ± 0.027
RLVGCWGRVKFE	0.6927 ± 0.003
PLRISPPPAPHP	0.7251 ± 0.0025
KKETRKKETKKE	0.685 ± 0.041
DSCPGAAGGRGG	0.642 ± 0.043
PPLPPPPPRPPP	0.611 ± 0.086
GPWGGSGGGGVG	0.628 ± 0.041
PPSLPAPPPPPA	0.6655 ± 0.0023
RSICTEGLDIGC	0.659 ± 0.033
VSSRHNCFRHGS	0.696 ± 0.039

Sequence	protein stability index
VSGGRQGGWGGW	0.691 ± 0.034
VTWNTLENMNLV	0.673 ± 0.032
ESAGLAGLSRAA	0.668 ± 0.022
GSDIIGSRDGWL	0.67 ± 0.039
GWGFLGGTVAAV	0.697 ± 0.035
GNKKEKYNRTSS	0.683 ± 0.0078
ALLPPRPPSPLP	0.692 ± 0.016
CMRVGGWFLFSL	0.661 ± 0.051
VLLPRIRPSYSL	0.674 ± 0.045
NKTNSKKSIFTV	0.703 ± 0.01
FGAFCSWLLLHS	0.61 ± 0.026
GGRGGATRRGSL	0.764 ± 0.055
VRLWLSLRLGFS	0.587 ± 0.068
SCLGGRISSRCG	0.69 ± 0.017
YYDWPGQRFSEE	0.67 ± 0.035
QKKKKKRNDKTQ	0.71 ± 0.049
FPLLGRCCRAVQ	0.682 ± 0.043
PLPPPPRPRLPL	0.764 ± 0.047
SKKKKRRKEQEK	0.745 ± 0.03
GGFICRHGVGRG	0.708 ± 0.011
FVLADLVPILFS	0.7102 ± 0.0013
GGRVWAGGYLGA	0.707 ± 0.068
VLPPPPTRPLLP	0.743 ± 0.019
AKRFQTTWAGRM	0.61 ± 0.037
KKDIYRVGLKVR	0.618 ± 0.011
PQLPSRVYPSLP	0.695 ± 0.027

Sequence	protein stability index
TPTSLRLSSLSP	0.648 ± 0.036
ERLHRRRRGECA	0.6743 ± 0.0061
PHAPCPRPSVTV	0.625 ± 0.086
SSHSFFLFRISL	0.608 ± 0.061
YERKGRQVGGRT	0.592 ± 0.048
DAYLGKRESRLW	0.615 ± 0.07
RGGGGGVECRVG	0.655 ± 0.075
DLQACGATSKAS	0.683 ± 0.059
PPSFCFFLLPFL	0.6558 ± 0.0054
SSSVSARAVSLP	0.6958 ± 0.0033
SLAASPPSPLLP	0.63 ± 0.09
PPALHPPPLPPR	0.646 ± 0.028
APSGFRRKDVDL	0.68 ± 0.034
TFGGLRVGFSSL	0.684 ± 0.028
NKISRDAVWNCR	0.657 ± 0.053
VCIGGGGVVLGL	0.645 ± 0.04
PVILPPLAPFLS	0.629 ± 0.019
NTNSTRSDNVFD	0.622 ± 0.011
IIEESTRPSPLG	0.697 ± 0.059
GWRRSWVWDVGG	0.699 ± 0.027
WEWLQAKCFLSQ	0.688 ± 0.086
DKKNIRIYNKTL	0.669 ± 0.042
GVGGPLRPGPCQ	0.758 ± 0.24
SRALNAPAPFLP	0.747 ± 0.044
GKTRLRAKLTYN	0.62 ± 0.08
LPTPSSSYLYPA	0.611 ± 0.017

Sequence	protein stability index
GGVRGRRLLGGR	0.7 ± 0.046
EFPRHDLDCSLV	0.7095 ± 0.00082
PILFLGGSMGER	0.676 ± 0.011
YILSSFWTEVDS	0.703 ± 0.093
RYCSLARSCPSG	0.678 ± 0.027
LGFDRGGGVAGM	0.674 ± 0.034
RVRVGGPRESGQ	0.7054 ± 0.00082
RLYGCNYAQSRR	0.712 ± 0.047
RHGFTNINGIKH	0.714 ± 0.012
SVPSLPLSFPPF	0.787 ± 0.032
RSTIEHILLFFI	0.668 ± 0.015
FLLSVVQGAVHQ	0.6 ± 0.036
LGGLKCGRLADS	0.656 ± 0.041
EPDCLVSSSVGI	0.686 ± 0.049
LVSPPSPPLPPP	0.728 ± 0.12
PFLHQRLLDSVL	0.726 ± 0.1
RKLFLKNELGSK	0.7 ± 0.14
RVRGGAGRGKRE	0.686 ± 0.032
PPPTHQLAVLSP	0.6413 ± 0.0062
GAGDGRGRIEGR	0.674 ± 0.015
RWLWRLDNRIVI	0.62081 ± 4.7e-05
GCFFQPRWSLLS	0.599 ± 0.0088
RHNKVSPNARYN	0.661 ± 0.027
PPLSSFSHHSFG	0.715 ± 0.069
GRTSTVRSLVFT	0.666 ± 0.026
CSSTGVPGRRHE	0.709 ± 0.013

Sequence	protein stability index
TFRRFKVQQLGN	0.561 ± 0.023
RFWDMGGYAGGL	0.733 ± 0.079
FRDEVLGSGVGS	0.65 ± 0.017
ASGGWGVGCPGV	0.716 ± 0.041
RSGLVRSLPLLL	0.664 ± 0.069
GVGREGGCWRTG	0.702 ± 0.11
LPPPPRPRSLLS	0.693 ± 0.047
SGYWWIYMSELS	0.666 ± 0.019
WVRDDEYTLIFL	0.712 ± 0.035
LGGGGVGVGSLV	0.679 ± 0.014
PSRRILFSAALL	0.764 ± 0.28
THPPSLAPPRKA	0.712 ± 0.0074
PLSLAPPPLPPY	0.671 ± 0.061
TLPARTIHTTGH	0.717 ± 0.028
ELRISSTTVTSP	0.664 ± 0.008
GGGVGEWCLVRL	0.6849 ± 4.4e-05
AVRVSRFSCGGW	0.717 ± 0.038
APPHLVTYPLCP	0.66 ± 0.067
ITKELKNIKQED	0.675 ± 0.0088
HRQTAKLKRIVI	0.651 ± 0.093
